Results as given in the supplement of paper PMC7125110.
± gives the standard error. For part of these data: Fewer inactive variants are shown than the library holds.

B1: glmS ribozyme (parent)
chain: AUAAAAGCGCCAGAACUACAGAAAUGUAGUUGACGAGGAGGAGGUUUAUCGAAUUUUCGGCGGAUGCCUCCAAA

Tests used:
Settings in all cases: with glucosamine-6-phosphate
glucosamine-6-phosphate [1] = variants of: B1; experiment: kcat; higher = faster cleavage; RNA array
How it was run: (§1)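 kobs was derived by fitting per-tile medians to one- or two-exponential decays after normalising signals to baseline and to non-cleaving reference variants. Those signals came from barcoded ribozyme variants transcribed in situ by E. coli RNA polymerase on sequenced MiSeq chips, followed through a hybridised Cy3 probe at 37 °C and imaged over ~14 h. Glucosamine-6-phosphate (40 μM to 10 mM) in HEPES/KCl/Mg(OAc)2 buffer was flowed in. Weighted Michaelis–Menten fits across concentrations then gave kcat and KM.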

glucosamine-6-phosphate [2] = variants of: B1; experiment: KM; higher = weaker cofactor use; RNA array
How it was run: as §1

glucosamine-6-phosphate [3] = variants of: B1; experiment: self-cleavage kobs at 160 uM GlcN6P; higher = faster cleavage; RNA array
How it was run: as §1

glucosamine-6-phosphate [4] = variants of: B1; experiment: self-cleavage kobs at 640 uM GlcN6P; higher = faster cleavage; RNA array
How it was run: as §1

glucosamine-6-phosphate [5] = variants of: B1; experiment: self-cleavage kobs at 2500 uM GlcN6P; higher = faster cleavage; RNA array
How it was run: as §1

glucosamine-6-phosphate [6] = variants of: B1; experiment: self-cleavage kobs at 10000 uM GlcN6P; higher = faster cleavage; RNA array
How it was run: as §1

glucosamine-6-phosphate [7] = variants of: B1; experiment: self-cleavage kobs at 40 uM GlcN6P; higher = faster cleavage; RNA array
How it was run: as §1

Variant	kcat (glucosamine-6-phosphate [1]) [s⁻¹]	KM (glucosamine-6-phosphate [2]) [mM]	self-cleavage kobs at 160 uM GlcN6P (glucosamine-6-phosphate [3]) [s⁻¹]	self-cleavage kobs at 640 uM GlcN6P (glucosamine-6-phosphate [4]) [s⁻¹]	self-cleavage kobs at 2500 uM GlcN6P (glucosamine-6-phosphate [5]) [s⁻¹]	self-cleavage kobs at 10000 uM GlcN6P (glucosamine-6-phosphate [6]) [s⁻¹]	self-cleavage kobs at 40 uM GlcN6P (glucosamine-6-phosphate [7]) [s⁻¹]
G32A C67A	0.000956 ± 0.00011	2.73 ± 0.63	5.05e-05 ± 1.6e-05	0.000168 ± 3.4e-05	0.000586 ± 0.00011	0.000728 ± 8.2e-05	–
G32A C67G	0.000177 ± 2.7e-05	1.89 ± 0.58	–	4.83e-05 ± 6.9e-06	9.14e-05 ± 1.2e-05	0.000164 ± 2.4e-05	< 1e-05
G32C A39U	6.89e-05 ± 3.3e-06	9.27 ± 0.88	–	–	–	3.58e-05 ± 6.1e-06	–
G32A G40C	0.00047 ± 8.1e-05	5.73 ± 1.6	–	5.53e-05 ± 9.2e-06	0.000126 ± 1.8e-05	0.000309 ± 3.3e-05	–
G37C C67A	< 1e-05	2.8 ± 0.95	< 1e-05	–	–	–	–
G32U A42G	0.00137 ± 0.00021	3.79 ± 0.81	4.61e-05 ± 1.7e-05	0.000218 ± 4e-05	0.000528 ± 0.00013	0.000988 ± 0.00023	–
A36C C50G G51A	< 1e-05	–	< 1e-05	–	–	–	–
A33C U54A	0.00129 ± 0.00021	7.81 ± 1.7	4.1e-05 ± 1.7e-05	9.44e-05 ± 1.2e-05	0.000323 ± 6.1e-05	0.000722 ± 0.0001	–
G32A C71G	0.000224 ± 3.5e-05	1.19 ± 0.45	5.06e-05 ± 1.5e-05	6.85e-05 ± 1.1e-05	0.00018 ± 2.8e-05	0.000195 ± 2.2e-05	–
A33C A36C G43A A52U	< 1e-05	–	–	–	–	–	–
G37A G66U	0.000462 ± 0.00011	3.94 ± 1.5	–	5.56e-05 ± 1.3e-05	0.000217 ± 3.4e-05	0.000301 ± 6.5e-05	–
G37A G66A	0.00157 ± 0.00017	4.29 ± 0.74	6.39e-05 ± 2e-05	0.0002 ± 5.4e-05	0.000527 ± 0.0001	0.00114 ± 0.00018	1.72e-05 ± 8.5e-06
G35U A53U	< 1e-05	–	–	< 1e-05	–	–	–
G32A C58G	0.000211 ± 4.8e-05	6.46 ± 3.2	–	–	5.76e-05 ± 1.7e-05	0.000129 ± 1.7e-05	–
C34G C67A	1.49e-05 ± 6.7e-06	–	< 1e-05	–	–	–	–
G37U U65G	< 1e-05	1.26 ± 0.5	< 1e-05	< 1e-05	–	–	< 1e-05
A36U C50G U69G	0.000296 ± 5.6e-05	–	0.000219 ± 6e-05	0.00036 ± 0.00012	0.000275 ± 0.00013	0.000368 ± 8.1e-05	0.000397 ± 0.00012
A36C A52G	< 1e-05	–	–	–	–	–	–
C34A G51U	0.000727 ± 0.00012	3.28 ± 1.2	–	0.000141 ± 3e-05	0.000354 ± 6.1e-05	0.000537 ± 4.9e-05	–

Variant	kcat (glucosamine-6-phosphate [1]) [s⁻¹]	KM (glucosamine-6-phosphate [2]) [mM]	self-cleavage kobs at 160 uM GlcN6P (glucosamine-6-phosphate [3]) [s⁻¹]	self-cleavage kobs at 640 uM GlcN6P (glucosamine-6-phosphate [4]) [s⁻¹]	self-cleavage kobs at 2500 uM GlcN6P (glucosamine-6-phosphate [5]) [s⁻¹]	self-cleavage kobs at 10000 uM GlcN6P (glucosamine-6-phosphate [6]) [s⁻¹]	self-cleavage kobs at 40 uM GlcN6P (glucosamine-6-phosphate [7]) [s⁻¹]
A33G U65A C70G	4e-05 ± 6.6e-06	0.627 ± 0.31	–	–	–	–	< 1e-05
A36U G38U	< 1e-05	–	–	–	–	< 1e-05	–
A36U G38A	< 1e-05	–	–	–	–	–	–
G32U A64G	0.000904 ± 0.0002	3.13 ± 1.1	4.19e-05 ± 1.1e-05	0.000178 ± 2.3e-05	0.00034 ± 4.6e-05	0.000774 ± 0.00011	–
A36U U54A	< 1e-05	–	–	–	–	–	–
G38C A48G	< 1e-05	–	–	< 1e-05	–	–	–
C34A G51U C67U	0.000275 ± 1.8e-05	2.73 ± 0.39	–	4.9e-05 ± 2e-05	0.00014 ± 3.7e-05	0.000213 ± 4.5e-05	–
A33C U65A	4.76e-05 ± 2.3e-06	0.617 ± 0.24	–	–	–	4.47e-05 ± 1.6e-05	–
G32A G44C C67U	0.000144 ± 5.9e-05	–	–	–	0.000148 ± 4.6e-05	0.00011 ± 2.3e-05	< 1e-05
G35U C70U	< 1e-05	–	< 1e-05	< 1e-05	–	< 1e-05	–
A36G U69G	2.8e-05 ± 8.7e-06	–	3.18e-05 ± 1.6e-05	4.85e-05 ± 1.9e-05	–	–	–
G38A U55G	< 1e-05	–	< 1e-05	–	–	–	–
C34U U69C	< 1e-05	–	–	–	–	–	–
G32A U69G	6.22e-05 ± 1.2e-05	–	–	0.000117 ± 1.8e-05	5.99e-05 ± 9.1e-06	5.26e-05 ± 8.5e-06	3.77e-05 ± 1.4e-05
G35U A36C	< 1e-05	–	< 1e-05	–	< 1e-05	< 1e-05	< 1e-05
A36C U54G	< 1e-05	–	–	–	< 1e-05	< 1e-05	–
A36C U54A	< 1e-05	–	< 1e-05	–	–	–	–
A36G C70G	1.29e-05 ± 3e-06	–	< 1e-05	–	–	–	–
